The results in this text go back to US20030119019 (published 2003).

The target of series [1] is GST::bov-rPrP25-242 (rPrPc) (Bos taurus, UniProt P10279 P10279:25-242). Description: EMSA. Particulars: tags: GST fusion, insect cells/baculovirus; label: 32P. On the technique in general: Mobility shift assays separate free from complexed probe on a gel.
The target of series [2] is GST::bov-rPrP93-242 (rPrP27-30 + 1 octarepeat) (Bos taurus, UniProt P10279 P10279:93-242). Description: EMSA. Particulars: tags: GST fusion, insect cells/baculovirus; label: 32P.

B1: Ap1 motif I 60mer (ssRNA)
RNA: GCAAUGCGUUGUGUGGGAAUUUGAGGGACGAUGGGGAAGUGGGGACGAAUGACUCAUUGC
B1: the values for the binding result in series [1] and in series [2] were “binds” and “no binding”, respectively.

B2: Ap2 motif II (ssRNA)
RNA: GGAGCUCAGCCUUCACUGCUACCUUAGAGUAGGAGCGGGACGAGGGGUUGUUGGGACGUGGGUAUGAUCCAUACAUUAGGAAGCUGGUGAGCUGGCACCACGGUCGGAUCCAC
As for B2, the binding result in series [1] is recorded as “binds”; in series [2], “no binding”.
